One series addresses T1, Sub2 (full-length) (Saccharomyces cerevisiae, UniProt Q07478).
T1 construct: full-length, expressed in E. coli BL21-CodonPlus(DE3)-RIL with N-terminal GST tag removed by TEV
T1 sequence (Q07478 1-446): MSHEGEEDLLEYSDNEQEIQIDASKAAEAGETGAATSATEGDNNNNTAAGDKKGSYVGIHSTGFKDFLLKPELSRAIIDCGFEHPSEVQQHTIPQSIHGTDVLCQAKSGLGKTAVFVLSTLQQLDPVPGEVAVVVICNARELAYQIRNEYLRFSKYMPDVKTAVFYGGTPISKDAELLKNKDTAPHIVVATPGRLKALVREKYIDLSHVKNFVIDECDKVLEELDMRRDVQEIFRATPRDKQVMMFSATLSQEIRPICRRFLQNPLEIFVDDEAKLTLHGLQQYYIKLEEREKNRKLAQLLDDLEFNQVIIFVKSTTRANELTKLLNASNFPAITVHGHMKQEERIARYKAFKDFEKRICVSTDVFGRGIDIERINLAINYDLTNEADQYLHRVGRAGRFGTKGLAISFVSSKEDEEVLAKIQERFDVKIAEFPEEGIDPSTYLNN
Description: NADH enzyme-coupled ATPase assay. The series is classed as biochemical. Particulars: 1 mM ATP; 10 µM poly(U) 20-mer RNA; 2 mM MgCl2, pH 7.0, 37 °C; no THO or Yra1.

For series [1], the target named is THO core complex (THO*) (S. cerevisiae | S. bayanus) (UniProt P53552).
Sequence of THO core complex (THO*) (S. cerevisiae | S. bayanus) (P53552 whole entry, looked up, one chain of several): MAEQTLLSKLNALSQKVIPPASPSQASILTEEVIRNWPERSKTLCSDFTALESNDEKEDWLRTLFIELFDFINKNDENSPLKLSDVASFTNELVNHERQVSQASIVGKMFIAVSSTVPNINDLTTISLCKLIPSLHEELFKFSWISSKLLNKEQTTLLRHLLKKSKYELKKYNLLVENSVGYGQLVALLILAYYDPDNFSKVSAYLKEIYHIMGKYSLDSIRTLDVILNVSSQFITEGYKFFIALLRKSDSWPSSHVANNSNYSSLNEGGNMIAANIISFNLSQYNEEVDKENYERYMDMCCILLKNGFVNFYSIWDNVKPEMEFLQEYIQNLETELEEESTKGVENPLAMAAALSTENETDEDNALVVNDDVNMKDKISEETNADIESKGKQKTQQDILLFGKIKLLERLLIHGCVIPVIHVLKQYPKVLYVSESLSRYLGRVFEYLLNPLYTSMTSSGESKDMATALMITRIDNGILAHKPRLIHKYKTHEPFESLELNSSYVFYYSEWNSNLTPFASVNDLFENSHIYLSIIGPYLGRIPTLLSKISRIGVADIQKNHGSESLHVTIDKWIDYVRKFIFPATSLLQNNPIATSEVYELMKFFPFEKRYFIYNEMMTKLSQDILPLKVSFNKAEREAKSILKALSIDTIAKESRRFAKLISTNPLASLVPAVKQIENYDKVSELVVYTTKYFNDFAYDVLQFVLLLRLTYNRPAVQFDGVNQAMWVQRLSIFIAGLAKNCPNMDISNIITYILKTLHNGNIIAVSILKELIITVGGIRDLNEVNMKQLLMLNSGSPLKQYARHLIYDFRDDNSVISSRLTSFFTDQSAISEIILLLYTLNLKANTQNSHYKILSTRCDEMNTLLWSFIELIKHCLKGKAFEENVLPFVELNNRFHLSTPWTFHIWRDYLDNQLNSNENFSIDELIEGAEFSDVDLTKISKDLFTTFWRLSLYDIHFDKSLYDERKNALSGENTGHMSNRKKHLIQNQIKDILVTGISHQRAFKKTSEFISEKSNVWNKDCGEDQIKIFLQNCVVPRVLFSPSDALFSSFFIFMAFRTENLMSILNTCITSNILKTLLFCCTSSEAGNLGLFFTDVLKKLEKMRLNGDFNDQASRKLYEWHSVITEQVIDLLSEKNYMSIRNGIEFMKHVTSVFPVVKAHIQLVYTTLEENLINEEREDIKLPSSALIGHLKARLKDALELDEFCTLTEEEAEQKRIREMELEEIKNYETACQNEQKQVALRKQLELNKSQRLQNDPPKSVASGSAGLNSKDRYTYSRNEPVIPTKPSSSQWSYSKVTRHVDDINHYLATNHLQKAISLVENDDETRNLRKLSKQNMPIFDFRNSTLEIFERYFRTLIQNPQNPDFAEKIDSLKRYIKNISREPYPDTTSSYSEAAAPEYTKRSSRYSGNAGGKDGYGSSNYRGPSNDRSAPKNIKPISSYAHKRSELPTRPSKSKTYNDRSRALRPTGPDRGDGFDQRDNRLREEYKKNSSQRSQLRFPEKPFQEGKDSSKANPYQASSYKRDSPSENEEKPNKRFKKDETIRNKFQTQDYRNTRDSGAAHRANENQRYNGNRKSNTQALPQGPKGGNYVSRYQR
Series [2] addresses T2, DEAD-box ATPase Sub2, full length (S. cerevisiae, UniProt Q07478 1-446).
T2 sequence (looked up): T1 sequence (Q07478 1-446)
Description: cell-based or functional assay.

The target of the next series is T3, Sub2;Yra1-C (Saccharomyces cerevisiae?;Saccharomyces …, UniProt Q07478;Q12159 1-446;185-226, |).
T3 sequence 1: T1 sequence (Q07478 1-446)
T3 sequence 2: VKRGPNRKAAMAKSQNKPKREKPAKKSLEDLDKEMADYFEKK
The experiment in a line: EMSA; 1 mM ATP-gamma-S, 2 mM MgCl2; Yra1-C promotes Sub2-RNA binding, trimeric complex; EMSA: 20 nM RNA, 20 mM HEPES pH 7.0, 100 mM NaCl, 1 mM TCEP, 2 mM MgCl2, 5% glycerol, 0.5 U/ul SUPERase-In, 1 mM nucleotide as indicated; room temperature, 10 min; 5% native PAGE, 45 mM Tris-borate. To be noted: protein: recombinant;recombinant; tags: N-terminal GST removed by TEV;N-terminal GST removed by TEV; copies: 1;1; label: 5' Alexa488; single strand. Background: A gel shift assay detects complexes by their altered migration in electrophoresis.

A further series has as its target T4, Yra1-C (UniProt Q12159 185-226).
T4 chain: T3 sequence 2
Description: EMSA; Yra1-C without Sub2; EMSA: 20 nM RNA, 20 mM HEPES pH 7.0, 100 mM NaCl, 1 mM TCEP, 2 mM MgCl2, 5% glycerol, 0.5 U/ul SUPERase-In, 1 mM nucleotide as indicated; room temperature, 10 min; 5% native PAGE, 45 mM Tris-borate. Particulars: protein: recombinant; tags: N-terminal GST removed by TEV; label: 5' Alexa488; single strand.

In the next series the target is T5, Sub2 (UniProt Q07478 1-446).
T5 sequence: T1 sequence (Q07478 1-446)
Description: EMSA; 1 mM ATP-gamma-S, 2 mM MgCl2; EMSA: 20 nM RNA, 20 mM HEPES pH 7.0, 100 mM NaCl, 1 mM TCEP, 2 mM MgCl2, 5% glycerol, 0.5 U/ul SUPERase-In, 1 mM nucleotide as indicated; room temperature, 10 min; 5% native PAGE, 45 mM Tris-borate. Particulars: protein: recombinant; tags: N-terminal GST removed by TEV; label: 5' Alexa488; single strand.

In another series the target is T6, Yra1 C-box (UniProt Q12159 208-226).
T6 chain: AKKSLEDLDKEMADYFEKK
The experiment in a line: EMSA; C-box without Sub2; EMSA: 20 nM RNA, 20 mM HEPES pH 7.0, 100 mM NaCl, 1 mM TCEP, 2 mM MgCl2, 5% glycerol, 0.5 U/ul SUPERase-In, 1 mM nucleotide as indicated; room temperature, 10 min; 5% native PAGE, 45 mM Tris-borate. Particulars: label: 5' Alexa488; single strand.

A further series addresses T7, Sub2 (a.a. 62-446) (S. cerevisiae, UniProt Q07478 62-446).
T7 construct: source: E. coli BL21-CodonPlus(DE3)-RIL, purified (glutathione sepharose, TEV, mono Q, Superdex 200); not shown: GST, N-terminal, cleaved
T7 sequence (looked up): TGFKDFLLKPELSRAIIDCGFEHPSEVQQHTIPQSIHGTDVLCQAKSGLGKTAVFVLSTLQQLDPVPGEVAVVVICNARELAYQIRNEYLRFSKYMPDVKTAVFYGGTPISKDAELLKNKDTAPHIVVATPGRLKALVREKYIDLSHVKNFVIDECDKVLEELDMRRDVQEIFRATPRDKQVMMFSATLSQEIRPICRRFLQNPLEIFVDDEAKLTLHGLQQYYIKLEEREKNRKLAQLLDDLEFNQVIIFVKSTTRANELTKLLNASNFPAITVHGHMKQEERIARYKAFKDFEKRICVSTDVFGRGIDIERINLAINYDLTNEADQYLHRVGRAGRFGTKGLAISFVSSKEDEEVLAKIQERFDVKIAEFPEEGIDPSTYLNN
The experiment in a line: crystal structure; Sub2 (62-446), Yra1-C* and poly(U) 15-mer RNA mixed 1:1.2:1.2 with 2 mM MgCl2 and ADP•BeF3; sitting drop, 4 °C, 100 mM Bis-Tris pH 5.5, 20% PEG3350, 0.2 M ammonium acetate; 2.6 Å. To be noted: both partners purified.

A further series addresses T8, Sub2 (62-446);Yra1-C* (Saccharomyces cerevisiae?;Saccharomyces …, UniProt Q07478;Q12159 62-446;200-226, |).
T8 sequence 1: T7 sequence (looked up)
T8 sequence 2: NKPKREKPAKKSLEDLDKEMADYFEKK
Description: X-ray crystallography 2.6 A; ADP-BeF3; EMSA: 20 nM RNA, 20 mM HEPES pH 7.0, 100 mM NaCl, 1 mM TCEP, 2 mM MgCl2, 5% glycerol, 0.5 U/ul SUPERase-In, 1 mM nucleotide as indicated; room temperature, 10 min; 5% native PAGE, 45 mM Tris-borate. To be noted: protein: recombinant;recombinant; tags: N-terminal GST removed by TEV;N-terminal GST removed by TEV; copies: 1;1; single strand.

Turning to `Nc1ncnc2c1ncn2[C@@H]1O[C@H](COP(=O)(O)OP(=O)(O)OP(=O)(O)O)[C@@H](O)[C@H]1O` [ATP], the “NADH enzyme-coupled ATPase assay” value at Sub2 (full-length) is on record as “Sub2 ATPase activity (mole of ADP produced per second per mole of Sub2)”.

B1: DEAD-box ATPase Sub2, full length (enzyme)
chain: T1 sequence (Q07478 1-446)
In series [1], B1 came in with a stimulation of the Sub2 ATPase activity by THO* (NADH-coupled ATPase assay, 2 μM Sub2, 2 μM THO, 10 μM poly(U) RNA, 37 °C) of 3.5 fold.
As for VKRGPNRKAAMAKSQNKPKREKPAKKSLEDLDKEMADYFEKK (domain or fragment, S. cerevisiae, UniProt Q12159 185-226, looked up) [C-terminal fragment of Yra1, Yra1-C (a.a. 185-226)], the “stimulation of the Sub2 ATPase activity by Yra1-C (NADH-coupled ATPase assay, 2 μM Sub2, 10 μM Yra1, 10 μM poly(U) RNA, 37 °C)” value in series [2] was roughly 2 fold.
As to UUUUUUUUUUUUUUUUUUUU (ssRNA) [poly(U) 20-mer RNA], the binding result with Sub2;Yra1-C was “binds”; in the series with Yra1-C, “binds”; with Sub2, “binds”; with Yra1 C-box it was “no binding”.

B2: truncated Yra1-C (Yra1-C*, a.a. 200-226) (domain or fragment, S. cerevisiae, UniProt Q12159 200-226, looked up)
chain: NKPKREKPAKKSLEDLDKEMADYFEKK
notes: source: E. coli BL21-CodonPlus(DE3)-RIL, purified (glutathione sepharose, TEV, mono S, Superdex 200); not shown: GST, N-terminal, cleaved
Consider B2, for which the binding result in the series with Sub2 (a.a. 62-446) was “binds”.
Turning to UUUUUUUUUUUUUUU (ssRNA) [poly(U) 15-mer RNA], the binding result with Sub2 (62-446);Yra1-C* is “binds”.

The values above are taken from article PMC5218534, “Structural and biochemical analyses of the DEAD-box ATPase Sub2 in association with THO or Yra1” (eLife, 2017).
